Experimental findings from patent publication US20240101716A1 are described below.

For experiment [1], the target named is recombinant human SIRPα variant 1 protein (human) (UniProt P78324). Put plainly: SPR Biacore 8K, antibody captured, antigen analyte.
Experiment [2] concerns the target SIRPα-His protein (UniProt P78324). As to the kind of experiment: competition ELISA: SIRPα-His binding to coated CD47-Fc in the presence of the antibody, OD450. (In general: An ELISA detects its analyte on a solid surface through an enzyme-linked reagent.)
Experiment [3] deals with recombinant human SIRPα variant 1 protein (human) (UniProt P78324). As to the kind of experiment: ELISA on coated recombinant human SIRPα v1, OD450.
In experiment [4] the target is SIRPα-His protein (UniProt P78324). As to the kind of experiment: competition ELISA, SIRPα-His binding to coated CD47-Fc.
Experiment [5] addresses SIRP-α expressed on cells (UniProt P78324). Put plainly: FACS binding test on SIRP-a cell line, Geom.Mean; unit from the axis log(nm). For orientation: In flow cytometry, cells or beads pass a laser one at a time.
For experiment [6], the target named is SIRPα (blocking assay of Example 11) (UniProt P78324). As to the kind of experiment: blocking of the CD47/SIRPα interaction, ratio 665 nm/615 nm against antibody concentration.

Substitutions are numbered along the chain they refer to.

recombinant human SIRPα variant 1 protein (human), sequence (P78324 31-370, change not shown): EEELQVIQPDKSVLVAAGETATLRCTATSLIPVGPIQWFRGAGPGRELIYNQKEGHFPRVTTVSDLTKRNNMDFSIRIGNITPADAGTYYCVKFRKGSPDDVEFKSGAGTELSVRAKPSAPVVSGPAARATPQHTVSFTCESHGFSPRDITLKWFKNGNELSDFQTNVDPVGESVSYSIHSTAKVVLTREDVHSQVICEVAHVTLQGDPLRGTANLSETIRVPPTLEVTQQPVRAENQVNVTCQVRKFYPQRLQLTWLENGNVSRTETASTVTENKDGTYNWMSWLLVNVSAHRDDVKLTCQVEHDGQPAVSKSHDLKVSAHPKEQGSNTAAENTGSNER

B1: 248G3F6 (antibody, V domains shown)
VH: EVQLQQSGAELVKPGASVKLSCTASGFNFEDTYMHWVKQRPDQGLEWIGRIDPADGDTKYNPKFQDKATITVDTSSNTAYLQLSSLTSEDTAVYYCVRGNYVNWGQGTTLTVSS
VL: QIVLIQSPAIMSASPGERVTLTCRASSSVSSSYLYWYQQKPGSSPKLWIYSTSNLASGVPARFSGSGSGTSYSLTISSMEAEDAASYFCHQWYSYPRTFGGGTKLEIK
As to B1, in experiment [1], the Kd (in general, the constant that tells how readily two partners part at equilibrium) was 2 nM; the koff (usually the rate constant with which the complex falls apart) worked out at 0.000374 s⁻¹; the kon – broadly, a measure of how fast the partners come together – is 187000 M⁻¹ s⁻¹. Further, the IC50 (usually the concentration at which inhibition is half-maximal) in the experiment with SIRPα-His protein [2] amounted to 0.356 µg/mL. In addition, the EC50 (as a rule, the midpoint of the concentration-response curve) in experiment [3] was 0.0182 µg/mL.

B2: HSP210-02-Chi (antibody, V domains shown)
VH: B1 VH
VL: B1 VL
B2 gave an IC50 with SIRPα-His protein [4] of 0.14 nM.

B3: HSP210-02-hz52 (antibody, V domains shown)
VH: QVQLVQSGAEVKKPGASVKVSCKASGFNFEDTYMHWVRQAPGQGLEWMGRIDPADADTKYNPKFQDRVTITVDTSTNTAYMELSSLRSEDTAVYYCVRGNYVNWGQGTTVTVSS
VL: EIVLTQSPGTLSLSPGERATLSCRASSSVSSSYLYWYQQKPGQAPRLLIYSTSNLASGIPDRFSGSGSGTDYTLTISRLEPEDAAVYFCHQWYSYPRTFGGGTKVEIK
On to B3, for which, in experiment [1], the Kd was 0.423 nM, the koff came to 0.000298 s⁻¹ and the kon was determined as 704000 M⁻¹ s⁻¹. The same molecule showed a concentration giving a half-maximal response (EC50) in experiment [5] of 0.54 nM. In experiment [6], the IC50 (read off the curve) was found to be 100 pM. The same molecule gave an IC50 with SIRPα-His protein [4] of 0.11 nM.

B4: HSP210-02-hz22 (antibody, V domains shown)
VH: B3 VH with A56G, I70M
VL: B3 VL
In the experiment with SIRPα-His protein [4], B4 gave an IC50 of 0.092 nM.

B5: HSP210-02-hz42 (antibody, V domains shown)
VH: B3 VH with D55E, A56G
VL: B3 VL
In the experiment with SIRPα-His protein [4], B5 registered a half-maximal inhibitory concentration (IC50) of 0.12 nM.

B6: HSP210-02-hz32 (antibody, V domains shown)
VH: B3 VH with A56G
VL: B3 VL
B6 showed an IC50 in the experiment with SIRPα-His protein [4] of 0.11 nM.

B7: 300A6A6 (antibody, V domains shown)
VH: QVQLQQSGTELVKPGSSVKISCKASGYTFTSNYIHWIRQQPGNGLEWIGWIYPGDGDTNYNQKFNGKATLTADKSSSTAYMQLSSLTSEDYAVYFCAINYGGIWFAYWGQGTLVTVSS
VL: DIQMTQSPSSMSASLGDRVTITCQASQDIGNKLIWFQQKPGKSPRLMIHYVTNLPGGVPLRFSGSRSGSDYSLTISSLESEDMADYYCLQYKQNPLTFGSGTKLEIK
Regarding B7, in experiment [1], the Kd was 1.13 nM, the koff is 0.000148 s⁻¹ and the kon was 131000 M⁻¹ s⁻¹. The half-inhibitory concentration (IC50) with SIRPα-His protein [2] was determined as 0.383 µg/mL. In experiment [3], the 50% effective concentration (EC50) came to 0.0121 µg/mL.

B8: HSP210-03-Chi (antibody, V domains shown)
VH: B7 VH
VL: B7 VL
With B8, the IC50 with SIRPα-His protein [4] is 0.14 nM.

B9: HSP210-01-hz22 (antibody, V domains shown)
VH: QVQLQESGPGLVKPSETLSLTCTFSGFSLNTYDIGMGWIRQPPGKGLEWIGHIWWNDREYYNSALQSRVTISKDTSKTQVSLKLSSVTAADTAVYYCVRIDYFGSGQAWFTYWGQGTLVTVSS
VL: EIVLTQSPGTLSLSPGERATLSCSSSSTISSTYLHWYQQKPGQAPRLLISGTSNLASGIPDRFSGSGSGTDYTLTISRLEPEDVAVYYCQQGSRIPFTFGQGTKLEIK
As for B9, in the experiment with SIRPα-His protein [4], the IC50 is 0.21 nM.

B10: HSP210-01-hz61 (antibody, V domains shown)
VH: B9 VH with G51A, S63P
VL: B9 VL with S50Y, Y72F, V84F
As for B10, the IC50 with SIRPα-His protein [4] is 0.21 nM.

B11: HSP210-01-hz52 (antibody, V domains shown)
VH: B9 VH with G51A, N62S
VL: B9 VL
On to B11, for which the IC50 in the experiment with SIRPα-His protein [4] was 0.23 nM.

B12: HSP210-01-hz32 (antibody, V domains shown)
VH: B9 VH with G51A
VL: B9 VL
As for B12, the half-inhibitory concentration (IC50) with SIRPα-His protein [4] was 0.16 nM.

B13: HSP210-01-hz62 (antibody, V domains shown)
VH: B9 VH with G51A, S63P
VL: B9 VL
As for B13, the IC50 in the experiment with SIRPα-His protein [4] was determined as 0.16 nM.

B14: HSP210-03-hz51 (antibody, V domains shown)
VH: QVQLVQSGAEVKKPGSSVKVSCKASGYTFTSNYIHWVRQAPGQGLEWMGWIYPGDADTNYNQKFNGRVTLTADKSTSTAYMELSSLRSEDTAVYYCAINYGGIWFAYWGQGTLVTVSS
VL: DIQMTQSPSSLSASVGDRVTITCQASQDIGNKLIWYQQKPGKAPKLLIYYVTNLPGGVPSRFSGSGSGTDFTLTISSLQPEDFATYYCLQYKQNPLTFGQGTKLEIK
As to B14, in experiment [1], the Kd worked out at 0.999 nM, the koff came to 0.000804 s⁻¹ and the on-rate constant (kon) was determined as 805000 M⁻¹ s⁻¹. For the same molecule, the EC50 in experiment [5] stood at 0.417 nM. Also, the IC50 (read off the curve) in experiment [6] was determined as 100 pM.

B15: HSP210-03-hz42 (antibody, V domains shown)
VH: B14 VH with D55E, A56G
VL: B14 VL with Y36F, Y49H, G66R, T69S, F71Y
On to B15, for which the IC50 with SIRPα-His protein [4] worked out at 0.13 nM.

B16: HSP210-03-hz32 (antibody, V domains shown)
VH: B14 VH with A56G
VL: B14 VL with Y36F, Y49H, G66R, T69S, F71Y
For B16, the IC50 with SIRPα-His protein [4] was found to be 0.145 nM.

B17: HSP210-03-hz52 (antibody, V domains shown)
VH: B14 VH
VL: B14 VL with Y36F, Y49H, G66R, T69S, F71Y
As for B17, the IC50 with SIRPα-His protein [4] was determined as 0.13 nM.

B18: HSP210-03-hz22 (antibody, V domains shown)
VH: B14 VH with A56G, L70I
VL: B14 VL with Y36F, Y49H, G66R, T69S, F71Y
In the experiment with SIRPα-His protein [4], B18 displayed an IC50 of 0.16 nM.
